# Data: US20250243261A1
# Target: SARS-CoV-2 BQ.1.1 Spike RBD (SARS-CoV-2 BQ.1.1 variant)
# Test: BLI, IgG
# Sequence of LY-1404 WT IgG (antibody) (VH): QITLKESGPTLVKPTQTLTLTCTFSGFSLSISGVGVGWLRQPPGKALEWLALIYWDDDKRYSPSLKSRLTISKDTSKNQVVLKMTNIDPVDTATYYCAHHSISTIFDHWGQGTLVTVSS
# Sequence of LY-1404 WT IgG (antibody) (VL): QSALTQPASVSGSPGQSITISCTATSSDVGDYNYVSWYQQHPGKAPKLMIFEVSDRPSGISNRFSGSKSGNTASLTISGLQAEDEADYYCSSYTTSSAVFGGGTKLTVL
substance,measurement,value
LY-1404 WT IgG (antibody),Kd,1.7 µM
